The values that follow come from publication PMC2757994 (The Journal of Biological Chemistry, 2009).

This series deals with the molecule itself. In words: SEC-MALS. On the technique in general: Size exclusion chromatography separates by hydrodynamic size, large species first.

B1: fibulin 5 fragment, residues 120–333 (cbEGFs 2–6) (domain or fragment, UniProt Q9UBX5 120-333, looked up)
chain: DESNQCVDVDECATDSHQCNPTQICINTEGGYTCSCTDGYWLLEGQCLDIDECRYGYCQQLCANVPGSYSCTCNPGFTLNEDGRSCQDVNECATENPCVQTCVNTYGSFICRCDPGYELEEDGVHCSDMDECSFSEFLCQHECVNQPGTYFCSCPPGYILLDDNRSCQDINECEHRNHTCNLQQTCYNLQGGFKCIDPIRCEEPYLRISDNRCM
modifications: N-glycosylated by the EBNA 293 cells (potential N-linked sites at residues 283 and 296)
For orientation: stoichiometry N means a count of units in the complex or per binding partner. Turning to B1, the “stoichiometry N” value was found to be 2.
